# Measured values: patent US20090172842
# T1: endogenous tobacco RUBISCO small subunit, P69249
# T1 chain: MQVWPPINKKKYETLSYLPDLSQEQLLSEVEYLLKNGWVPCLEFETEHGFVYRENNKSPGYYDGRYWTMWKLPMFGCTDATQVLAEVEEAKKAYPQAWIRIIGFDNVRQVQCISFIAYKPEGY
# B1: Griffithsia monilis RUBISCO large subunit with C-terminal 6-His tag, product of the chloroplast transgene cpGMNrbcL (pTCP104 tobacco) (protein)
# chain: MANSVEERTRIKNERYESGVIPYAKMGYWDPNYAVKDTDILALFRVSPQPGVDPVEASAAVAGESSTATWTVVWTDLLTACDLYRAKAYKVESVPNTSDQYFAYISYDIDLFEEGSIANLTASIIGNVFGFKAVKALRLEDMRIPVAYLKTFQGPATGIVVERERMDKFGRPFLGATVKPKLGLSGKNYGRVVYEGLRGGLDFLKDDENINSQPFMRWKERFLYSIEAVNRSIAATGEVKGHYMNVTAATMEEMYERAEFAKQLGTVIIMIDLVIGYTAIQTMGIWARKNDMILHLHRAGNSTYSRQKIHGMNFRVICKWMRMAGVDHIHAGTVVGKLEGDPLMIRGFYNTLLLPYLEVNLPQGIFFQQDWASLRKVTPVASGGIHCGQMHQLLDYLGNDVVLQFGGGTIGHPDGIQAGATANRVALESMVIARNEGRDYVAEGPQILRDAAKTCGPLQTALDLWKDITFNYTSTDTADFVETPTANVHHHHHH
# Molecular target: T1, endogenous tobacco RUBISCO small …
protein,measurement,value
B1,"RUBISCO Activity (RuBP-dependent 14CO2 fixation), pTCP104-1 tobacco crude extract",0 mU/mg
same,"RUBISCO Activity (RuBP-dependent 14CO2 fixation), pTCP104-1 tobacco purified rubisco",2.1 mU/mg
